Results taken from patent US20180346600A1 (AJOU UNIVERSITY INDUSTRY ACADEMIC COOPERATION FOUNDATION, published 2018).
Residue numbers refer to the chain shown, from its start. Names and notes keep the numbering of the source. Blank lines part the entries; values can stand above or below the binder they belong to.

Experiments:
[1] = target: T1, displayed FcCH3A, W-VT (K409W), on yeast cell surface (human, UniProt P0DOX5 227-449 = IgG part); assay: flow cytometry histogram (PE, FL2-H) of diploid yeast: Flag-tagged secreted FcCH3B held on displayed FcCH3A, anti-Flag mouse mAb and PE anti-mouse antibody
T1 construct: EU 226 and 229 counted from the entry's start at EU 225; also called W-VT CH3A chain (yeast)
T1 Fc: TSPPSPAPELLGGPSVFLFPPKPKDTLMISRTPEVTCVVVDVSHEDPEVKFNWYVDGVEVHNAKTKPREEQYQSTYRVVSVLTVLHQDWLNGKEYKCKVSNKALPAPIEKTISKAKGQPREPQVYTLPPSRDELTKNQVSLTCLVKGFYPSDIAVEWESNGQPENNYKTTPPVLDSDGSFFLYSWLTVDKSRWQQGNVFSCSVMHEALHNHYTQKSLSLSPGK
Description: Specifically, the diploid in which the expression of the heterodimeric heavy chain constant region was induced was reacted with an antibody recognizing flag-tag included in the secreted FcCH3B (anti-Flag mouse mAb, F3165) (Sigma-Aldrich) and an antibody conjugated with PE (phycoerythrin conjugated anti-mouse mAb, sc-3738) (Santa Cruz biotechnology), and a signal of PE was analyzed by flow cytometry.

[2] = target: T2, displayed FcCH3A, EW-RVT (K360E/K409W), on yeast cell surface (human, UniProt P0DOX5 227-449 = IgG part); assay: flow cytometry of diploid yeast: MFI of Flag-tagged secreted FcCH3B held on displayed FcCH3A (anti-Flag mouse mAb and PE anti-mouse antibody), normalised to EW-RVT = 100 %
T2 construct: also called EW-RVT CH3A chain (yeast)
T2 Fc: T1 Fc with K136E

[3] = target: T3, displayed FcCH3A, A107 (K370E/K409W), on yeast cell surface (human, UniProt P0DOX5 227-449 = IgG part); assay: as above
T3 construct: also called A107 CH3A chain (yeast)
T3 Fc: T1 Fc with K146E

[4] = target: T4, displayed FcCH3A, A108 (K370E/K409W), on yeast cell surface (human, UniProt P0DOX5 227-449 = IgG part); assay: as above
T4 construct: also called A108 CH3A chain (yeast)
T4 Fc: T1 Fc with K146E

[5] = target: the molecule itself; assay: HEK293-F co-expression, Protein A purification, non-reducing SDS-PAGE densitometry
Text: The CH3 domain mutant pair of the individual clones selected from the LibA2 and LibB2 libraries in Example 8 above was cloned into an animal cell expression vector so that the CH3A mutant was expressed into the scFv-FcCH3A format and the CH3B mutant was expressed into the FcCH3B format.
The EW-RVT and A107_{w/oW-VT}, B168_{w/oW-VT} mutant pairs were used as control groups.

[6] = target: the molecule itself; assay: as above; remark: listed apart in the source
Text: The pcDNA3.1 (+)-scFv-FcCH3A and pcDNA3.1 (+)-FcCH3B animal cell expression vectors that were constructed using the HEK293-F system (Invitrogen) were used to produce antibodies by transient transfection, and the heterodimer formation ability was compared. Specifically, a mixture of an expression vector and polyethylenimine (PEI) (Polyscience) was transfected into HEK293-F cells (Invitrogen) that were suspension-grown on a serum-free FreeStyle 293 expression medium (Invitrogen) in a shaking flask (Corning). When transfecting 30 ml of the mixture in the shaking flask, HEK293-F cells were seeded at a density of 1.0×10⁶ cell/ml in 30 ml of medium and cultured at 125 rpm and 8% CO₂. […] Then, the reacted mixed medium was added to 30 ml of the previously seeded cells and cultured at 125 rpm and 8% CO₂ for 6 days. The cell culture supernatant collected with reference to the standard protocol was applied to Protein A Sepharose column (GE healthcare), washed with PBS (pH 7.4). The antibody was eluted at pH 3.0 with 0.1 M glycine buffer and immediately neutralized with 1 M Tris buffer. The eluted antibody fraction was concentrated using an Amicon Ultra (MILLIPORE) centrifugal concentrator after the buffer was exchanged with PBS (pH 7.4) using a Dextran Desalting Column (Thermo Scientific Pierce). The purified antibody was quantified by BCA technique.
The W-VT and EW-RVT mutants were used as control groups.

binding result [1]: binds
B1: secreted FcCH3B, W-VT (D399V/F405T), from yeast (other)
chain: T1 Fc with D175V, F181T, W185K
notes: also called W-VT CH3B chain (yeast); not shown: flag-tag

binding result [2]: binds
B2: secreted FcCH3B, EW-RVT (Q347R/D399V/F405T), from yeast (other)
chain: T1 Fc with Q123R, D175V, F181T, W185K
notes: also called EW-RVT CH3B chain (yeast); not shown: flag-tag

binding result [3]: binds
B3: secreted FcCH3B, A107 (E357N/D399V/F405T), from yeast (other)
chain: T1 Fc with E133N, D175V, F181T, W185K
notes: also called A107 CH3B chain (yeast); not shown: flag-tag

binding result [4]: binds
B4: secreted FcCH3B, A108 (E357I/S364T/D399V/F405T), from yeast (other)
chain: T1 Fc with E133I, S140T, D175V, F181T, W185K
notes: also called A108 CH3B chain (yeast); not shown: flag-tag

B5: FcCH3B, B212 (D399G/K392G/K409M) (other)
chain: T1 Fc with S2C, S5C, Q73N, K168G, D175G, W185M
notes: also called B212 CH3B chain
(FC)2 (homodimer)(%) [5]: 33.8%

B6: FcCH3B, A108 (E357I/S364T/D399V/F405T) (other)
chain: T1 Fc with S2C, S5C, Q73N, E133I, S140T, D175V, F181T, W185K
notes: also called A108 CH3B chain
(Fc)2 (homodimer) (%) [6]: 13%

B7: FcCH3B, B239 (D399S/K392G/K409M) (other)
chain: T1 Fc with S2C, S5C, Q73N, K168G, D175S, W185M
notes: also called B239 CH3B chain
(FC)2 (homodimer)(%) [5]: 20.3%

B8: FcCH3B, B135 (K392S/K409L/D399V/F405T) (other)
chain: T1 Fc with S2C, S5C, Q73N, K168S, D175V, F181T, W185L
notes: also called B135 CH3B chain
(Fc)2 (homodimer) (%) [6]: 27.9%

B9: FcCH3B, A107 (E357N/D399V/F405T) (other)
chain: T1 Fc with S2C, S5C, Q73N, E133N, D175V, F181T, W185K
notes: also called A107 CH3B chain
(Fc)2 (homodimer) (%) [6]: 2.4%

B10: FcCH3B, B215 (D399W/K392G/K409M) (other)
chain: T1 Fc with S2C, S5C, Q73N, K168G, D175W, W185M
notes: also called B215 CH3B chain
(FC)2 (homodimer)(%) [5]: 20%

B11: FcCH3B, A146 (E357M/D399V/F405T) (other)
chain: T1 Fc with S2C, S5C, Q73N, E133M, D175V, F181T, W185K
notes: also called A146 CH3B chain
(Fc)2 (homodimer) (%) [6]: 14.6%

B12: FcCH3B, A109 (E357M/S364W/D399V/F405T) (other)
chain: T1 Fc with S2C, S5C, Q73N, E133M, S140W, D175V, F181T, W185K
notes: also called A109 CH3B chain
(Fc)2 (homodimer) (%) [6]: 5.8%

B13: FcCH3B, EW-RVT (Q347R/D399V/F405T) (other)
chain: T1 Fc with S2C, S5C, Q73N, Q123R, D175V, F181T, W185K
notes: also called EW-RVT CH3B chain
(Fc)2 (homodimer) (%) [6]: 1.6%
(FC)2 (homodimer)(%) [5]: 1.6%

B14: FcCH3B, B121 (K392E/D399V/F405T) (other)
chain: T1 Fc with S2C, S5C, Q73N, K168E, D175V, F181T, W185K
notes: also called B121 CH3B chain
(Fc)2 (homodimer) (%) [6]: 25.2%

B15: FcCH3B, B240 (D399G/K392G/K409M) (other)
chain: T1 Fc with S2C, S5C, Q73N, K168G, D175G, W185M
notes: also called B240 CH3B chain
(FC)2 (homodimer)(%) [5]: 11.9%

B16: FcCH3B, B256 (D399V/K392G/K409M) (other)
chain: T1 Fc with S2C, S5C, Q73N, K168G, D175V, W185M
notes: also called B256 CH3B chain
(FC)2 (homodimer)(%) [5]: 16.7%

B17: FcCH3B, B168 (K392G/K409M/D399V/F405T) (other)
chain: T1 Fc with S2C, S5C, Q73N, K168G, D175V, F181T, W185M
notes: also called B168 CH3B chain
(Fc)2 (homodimer) (%) [6]: 21.1%

B18: FcCH3B, B235 (D399C/K392G/K409M) (other)
chain: T1 Fc with S2C, S5C, Q73N, K168G, D175C, W185M
notes: also called B235 CH3B chain
(FC)2 (homodimer)(%) [5]: 6.9%
